Experimental findings from paper PMC13627691 (2026) are described below.

B1: ATG2A-mCherry (expressed as 3XFLAG-TEV-ATG2A-mCherry) [not stated (the printed accession is a human entry)] / GST-tagged LC3B [not stated (the printed accession is a human entry)] (parent complex)
chain 1: MSRWLWPWSNCVKERVCRYLLHHYLGHFFQEHLSLDQLSLDLYKGSVALRDIHLEIWSVNEVLESMESPLELVEGFVGSIEVAVPWAALLTDHCTVRVSGLQLTLQPRRGPAPGAADSQSWASCMTTSLQLAQECLRDGLPEPSEPPQPLEGLEMFAQTIETVLRRIKVTFLDTVVRVEHSPGDGERGVAVEVRVQRLEYCDEAVRDPSQAPPVDVHQPPAFLHKLLQLAGVRLHYEELPAQEEPPEPPLQIGSCSGYMELMVKLKQNEAFPGPKLEVAGQLGSLHLLLTPRQLQQLQELLSAVSLTDHEGLADKLNKSRPLGAEDLWLIEQDLNQQLQAGAVAEPLSPDPLTNPLLNLDNTDLFFSMAGLTSSVASALSELSLSDVDLASSVRSDMASRRLSAQAHPAGKMAPNPLLDTMRPDSLLKMTLGGVTLTLLQTSAPSSGPPDLATHFFTEFDATKDGPFGSRDFHHLRPRFQRACPCSHVRLTGTAVQLSWELRTGSRGRRTTSMEVHFGQLEVLECLWPRGTSEPEYTEILTFPGTLGSQASARPCAHLRHTQILRRVPKSRPRRSVACHCHSELALDLANFQADVELGALDRLAALLRLATVPAEPPAGLLTEPLPAMEQQTVFRLSAPRATLRLRFPIADLRPEPDPWAGQAVRAEQLRLELSEPQFRSELSSGPGPPVPTHLELTCSDLHGIYEDGGKPPVPCLRVSKALDPKSTGRKYFLPQVVVTVNPQSSSTQWEVAPEKGEELELSVESPCELREPEPSPFSSKRTMYETEEMVIPGDPEEMRTFQSRTLALSRCSLEVILPSVHIFLPSKEVYESIYNRINNDLLMWEPADLLPTPDPAAQPSGFPGPSGFWHDSFKMCKSAFKLANCFDLTPDSDSDDEDAHFFSVGASGGPQAAAPEAPSLHLQSTFSTLVTVLKGRITALCETKDEGGKRLEAVHGELVLDMEHGTLFSVSQYCGQPGLGYFCLEAEKATLYHRAAVDDYPLPSHLDLPSFAPPAQLAPTIYPSEEGVTERGASGRKGQGRGPHMLSTAVRIHLDPHKNVKEFLVTLRLHKATLRHYMALPEQSWHSQLLEFLDVLDDPVLGYLPPTVITILHTHLFSCSVDYRPLYLPVRVLITAETFTLSSNIIMDTSTFLLRFILDDSALYLSDKCEVETLDLRRDYVCVLDVDLLELVIKTWKGSTEGKLSQPLFELRCSNNVVHVHSCADSCALLVNLLQYVMSTGDLHPPPRPPSPTEIAGQKLSESPASLPSCPPVETALINQRDLADALLDTERSLRELAQPSGGHLPQASPISVYLFPGERSGAPPPSPPVGGPAGSLGSCSEEKEDEREEEGDGDTLDSDEFCILDAPGLGIPPRDGEPVVTQLHPGPIVVRDGYFSRPIGSTDLLRAPAHFPVPSTRVVLREVSLVWHLYGGRDFGPHPGHRARTGLSGPRSSPSRCSGPNRPQNSWRTQGGSGRQHHVLMEIQLSKVSFQHEVYPAEPATGPAAPSQELEERPLSRQVFIVQELEVRDRLASSQINKFLYLHTSERMPRRAHSNMLTIKALHVAPTTNLGGPECCLRVSLMPLRLNVDQDALFFLKDFFTSLVAGINPVVPGETSAEARPETRAQPSSPLEGQAEGVETTGSQEAPGGGHSPSPPDQQPIYFREFRFTSEVPIWLDYHGKHVTMDQVGTFAGLLIGLAQLNCSELKLKRLCCRHGLLGVDKVLGYALNEWLQDIRKNQLPGLLGGVGPMHSVVQLFQGFRDLLWLPIEQYRKDGRLMRGLQRGAASFGSSTASAALELSNRLVQAIQATAETVYDILSPAAPVSRSLQDKRSARRLRRGQQPADLREGVAKAYDTVREGILDTAQTICDVASRGHEQKGLTGAVGGVIRQLPPTVVKPLILATEATSSLLGGMRNQIVPDAHKDHALKWRSDSAQD
chain 2: not shown

Variants of B1 are the subject of this assay. Nature of the assay: bead-based binding assay (GSH beads, confocal imaging of mCherry fluorescence); 5 µM GST-tagged bait on Glutathione Sepharose 4B beads; 0.5 µM ATG2A-mCherry or ATG2A-LIR-mCherry; SEC150 buffer; N = 3; parent: 17; read off a plot.
As to chain 1 F1362A, chain 1 C1363A, chain 1 I1364A, chain 1 L1365A, the response is approximately 0.7%.
